This note sets out measurements from article PMC4962041, “Human DNA-Damage-Inducible 2 Protein Is Structurally and Functionally Distinct from Its Yeast Ortholog” (Scientific Reports, 2016).

Data set [1] addresses T1, human ubiquitin (human, UniProt P0CG48 1-76).
T1 construct: human ubiquitin, the cut product of the ubiquitin precursors; shifts were mapped on PDB 1D3Z; also called UBQ; mono-UBQ; source: 15N- or 15N/13C-labelled where observed by NMR
Nature of the data set: NMR titration; 15N-labelled hDdi2 UBL (0.05 mM) with a 1- to 10-fold molar excess of UBQ; 50 mM sodium phosphate, pH 7.4, 25 °C; 1:1 model for the Kd. As to conditions: both partners purified.

Data set [2] deals with T1, human ubiquitin. Nature of the data set: NMR titration; 15N-labelled UBQ (0.1 mM) with unlabelled peptide; 15N/1H-HSQC chemical shift perturbation; 50 mM sodium phosphate, pH 6.0 and pH 7.4, 25 °C; 1:1 model for the Kd. Conditions: both partners purified.
Data set [3] deals with the molecule itself. Kind of data set: crystal structure; hDdi2 RVP (212-360), 1.9 Å, PDB 4RGH; hanging drop, 0.2 M ammonium acetate, 0.1 M Bis-Tris pH 5.5, 25% PEG 3350.
Data set [4] concerns the molecule itself. Kind of data set: SAXS; His-tagged HDD-RVP at 5 and 2.5 mg/ml in 25 mM Tris/HCl, 75 mM NaCl, 5% glycerol, 1 mM DTT, pH 7.4; molecular mass from the invariant Vc.

The term Kd denotes the equilibrium constant for the complex coming apart. As usually defined, the stoichiometry N is a count of units in the complex or per binding partner.

No end group written: not given here.

B1: hDdi2 UBL domain (residues 1-76) (domain or fragment, human, UniProt Q5TDH0 1-76, looked up)
chain: MLLTVYCVRRDLSEVTFSLQVDADFELHNFRALCELESGIPAAESQIVYAERPLTDNHRSLASYGLKDGDVVILRQ
notes: human DNA-damage-inducible 2 protein (Ddi homolog 2, 399 amino acids), residues 1-76: ubiquitin-like domain; also called N-terminal UBL domain of hDdi2; not shown: His tag, N-terminal, kept
For B1, in the data set with human ubiquitin [1], the Kd lay in the range of 420 to 1100 µM.

B2: hDdi2-UIM peptide (peptide)
peptide: EEIADQELAEALQKSAEDAE-NH2
notes: Dissolved in DMSO before use; also called C-terminal hDdi2 UIM peptide; source: synthetic peptide (solid phase, HPLC purified)
As to B2, the Kd with human ubiquitin [2] fell in the range of 2200 to 3200 µM.

B3: hDdi2 RVP domain (residues 212-360) (domain or fragment)
chain: not shown
notes: Gln232 to Pro359 visible in the structure
In the case of B3, the binding result in data set [3] was “binds”.

B4: hDdi2 HDD-RVP (residues 116-360) (domain or fragment, human, UniProt Q5TDH0 116-360, looked up)
chain: QQSHSSPGEITSSPQGLDNPALLRDMLLANPHELSLLKERNPPLAEALLSGDLEKFSRVLVEQQQDRARREQERIRLFSADPFDLEAQAKIEEDIRQQNIEENMTIAMEEAPESFGQVVMLYINCKVNGHPVKAFVDSGAQMTIMSQACAERCNIMRLVDRRWAGIAKGVGTQKIIGRVHLAQVQIEGDFLPCSFSILEEQPMDMLLGLDMLKRHQCSIDLKKNVLVIGTTGSQTTFLPEGELPE
notes: human DNA-damage-inducible 2 protein (Ddi homolog 2, 399 amino acids), residues 116-360 (lacking both UBL and UIM); Called His-tagged for the SAXS experiment; dimer by SAXS; not shown: His tag, N-terminal, kept
As for B4, the “stoichiometry N” value in data set [4] worked out at 2.
